A short description of data set [1]: Qualitative investigation of aggregation by size exclusion chromatography (gel filtration). In kind it is physicochemical. The conditions noted are these: Superose 12, compared to the five isoforms of PDE4D (D3, D5-D8). On the procedure: The term “improved physicochemical properties” as used herein refers to a decrease in aggregate formation of polypeptides. For the purpose of definition, aggregate formation of the polypeptides of this invention is determined by quantitation of the fractions of a gelfiltration experiment in which aggregated PDE elutes, and of the fractions in which non-aggregated PDE elutes. The degree of aggregation is calculated in percent of non-aggregated PDE based on total (aggregated and non-aggregated) PDE. […] Chromatograms were recorded at 278 nm. […]
50 μl of Ni-NTA agarose purified isoform preparation was injected into a Superose 12 size exclusion column (type PC3.2/30; Amersham Pharmacia Biotech), equilibrated with 50 mM TrisHCl pH 7.7, 100 mM NaCl, 0.5 mM MgCl2 at a flow rate of 0.1 ml/min at 4° C. Chromatograms were recorded at 278 nm. […]

Data set [2] is described as follows: Quantification of aggregates and tubulin content (SDS-PAGE densitometry of SEC fractions). In kind it is physicochemical. The conditions noted are these: compared to isoforms D3 and D5 to D8. The source says: In a preferred embodiment, the invention provides a polypeptide comprising a PDE polypeptide sequence, with an amino-terminal deletion wherein the proportion of non-aggregated PDE in the total protein preparation is from 55 %, preferably from 60%, more preferably from 65%, most perferably from 68% to 100%, preferably to 90%, more preferably to 80%, most preferably to 70% of total protein, as determined by the quantitation of eluted fractions from a gel filtration of the PDE fractions. Quantitation was performed as follows: Equal volume aliquots of fractions from Size Exclusion Chromatography, run as hereinbefore described, were analyzed by SDS-PAGE (one gel per run and isoform, FIG. 3). […]
To determine the decrease in tubulin association, the ratio of PDE molecules per tubulin molecules in the preparation of PDE polypeptide was calculated by quantitation of SDS-PAGE. […] The tubulin content of PDE preparations was determined as follows: Equal volume aliquots of fractions from SEC were analyzed by SDS-PAGE (one gel per run and isoform, FIG. 3). Optical densities of Coomassie stained PDE and tubulin bands were integrated as described hereinbefore for PDE aggregation quantitation. […]
Quantification of Aggregates and Tubulin Content
Equal volume aliquots of fractions from SEC were analyzed by SDS-PAGE (one gel per run and isoform, FIG. 3). […]

B1: DC: PDE4D polypeptide with amino-terminal deletion starting at the LF1 splice site, SEQ ID No. 2, 6xHis tagged (protein, listed as Homo sapiens)
chain: MFDVDNGTSAGRSPLDPMTSPGSGLILQANFVHSQRRESFLYRSDSDYDLSPKSMSRNSSIASDIHGDDLIVTPFAQVLASLRTVRNNFAALTNLQDRAPSKRSPMCNQPSINKATITEEAYQKLASETLEELDWCLDQLETLQTRHSVSEMASNKFKRMLNRELTHLSEMSRSGNQVSEFISNTFLDKQHEVEIPSPTQKEKEKKKRPMSQISGVKKLMHSSSLTNSSIPRFGVKTEQEDVLAKELEDVNKWGLHVFRIAELSGNRPLTVIMHTIFQERDLLKTFKIPVDTLITYLMTLEDHYHADVAYHNNIHAADVVQSTHVLLSTPALEAVFTDLEILAAIFASAIHDVDHPGVSNQFLINTNSELALMYNDSSVLENHHLAVGFKLLQEENCDIFQNLTKKQRQSLRKMVIDIVLATDMSKHMNLLADLKTMVETKKVTSSGVLLLDNYSDRIQVLQNMVHCADLSNPTKPLQLYRQWTDRIMEEFFRQGDRERERGMEISPMCDKHNASVEKSQVGFIDYIVHPLWETWADLVHPDAQDILDTLEDNREWYQSTIPQSPSPAPDDPEEGRQGQTEKFQFELTLEEDGESDTEKDSGSQVEEDTSCSDSKTLCTQDSESTEIPLDEQVEEEAVGEEEESQPEACVIDDRSPDTHHHHHH
modifications: 6xHis tag; PDE4D_core (1)..(664); LF1_splice_site (2)..(2); UCR1_site_-13 (22)..(22); UCR1_site (35)..(35); SER54 (39)..(39); SER579 (564)..(564)
As to B1, the “Aggregate formation (gel filtration elution profile)” value in data set [1] is on record as “decrease in aggregation”. In data set [2], the “Percentage of non-aggregated PDE4D based on total PDE4D protein” value is “highest percentage of non-aggregated PDE4D”; the “Tubulin content (ratio between PDE4D and tubulin, total mass basis)” value is on record as “significantly lower”.

These data come from patent publication US20050106581A1, “Modified phosphodiesterase polypeptides with altered physiochemical properties” (priority 2002, published 2005).
